The chains are these.
B1: TBE1 mutant (dsDNA)
DNA 1: GCTGCAGAGGATTGATTAGCGGTAG
DNA 2: CTACCGCTAATCAATCCTCTGCAGC
B2: TBE5 mutant (dsDNA)
DNA 1: CTAAAAGTTCATGCAGTTAAATTTGGG
DNA 2: CCCAAATTTAACTGCATGAACTTTTAG
B3: TBE3 mutant (dsDNA)
DNA 1: CTCTAAGTGTAGTTATATCTCTGAATG
DNA 2: CATTCAGAGATATAACTACACTTAGAG
B4: TBE4 mutant (dsDNA)
DNA 1: CTGGAAATATAGAAAGCGGGCAGAAC
DNA 2: GTTCTGCCCGCTTTCTATATTTCCAG
B5: TBE2 mutant (dsDNA)
DNA 1: CTCTGTGTCTAGTTAAATGTATCTCTG
DNA 2: CAGAGATACATTTAACTAGACACAGAG
B6: TBE2 (dsDNA)
DNA 1: CTCTGTGTCTCTTTGAATGTATCTCTG
DNA 2: CAGAGATACATTCAAAGAGACACAGAG
B7: TBE1 (dsDNA)
DNA 1: GCTGCAGAGGCTTTGTTAGCGGTAG
DNA 2: CTACCGCTAACAAAGCCTCTGCAGC
B8: TBE3 (dsDNA)
DNA 1: CTCTAAGTGTCTTTGTATCTCTGAATG
DNA 2: CATTCAGAGATACAAAGACACTTAGAG
B9: TBE5 (dsDNA)
DNA 1: CTAAAAGTTCATGCCTTTGAATTTGGG
DNA 2: CCCAAATTCAAAGGCATGAACTTTTAG
B10: TBE4 (dsDNA)
DNA 1: CTGGAAATATCAAAGGCGGGCAGAAC
DNA 2: GTTCTGCCCGCCTTTGATATTTCCAG

T1 sequence (Q9NQB0 288-519, one chain of several): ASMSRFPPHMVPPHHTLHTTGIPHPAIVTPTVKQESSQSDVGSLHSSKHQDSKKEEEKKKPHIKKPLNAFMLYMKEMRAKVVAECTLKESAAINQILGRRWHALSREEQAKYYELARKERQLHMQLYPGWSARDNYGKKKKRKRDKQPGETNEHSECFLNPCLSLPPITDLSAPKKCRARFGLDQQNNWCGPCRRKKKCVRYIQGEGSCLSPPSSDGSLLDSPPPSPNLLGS

The first series addresses T1, TCF4 (TCF7L2) residues 265-496, GST fusion (Homo sapiens, UniProt Q9NQB0-8 Q9NQB0-8:265-496). Briefly: competition; mutant unlabeled competitor does not compete in EMSA. To be noted: tags: N-terminal GST (pGEX-5X-1), E. coli DH5alpha. An excerpt:
(§1) Five TCF-4 binding sequences on intron 1 were synthesized (TBE 1-5) and radioactively labeled, and shift assay was used to investigate whether they bound with GST-TCF.
The oligonucleotide used in preparing the mutant hBAMBI-luciferase construct was used as the mutant competitive molecule.
Background: In EMSA bound probe runs differently from free probe, usually more slowly.
For the molecule B1, the binding result is on record as “no binding”.
On to B2, for which the binding result is listed as “no binding”.
Consider B3, for which the binding result was “no binding”.
Turning to B4, the binding result was “no binding”.
The same measure, in the same setting: the entry for B5 is “no binding”.

In the next series the target is GST (UniProt P08515 P08515:1-218). Briefly: EMSA; GST control. To be noted: tags: pGEX-5X-1 (Pharmacia), E. coli DH5alpha; label: radioactive.
Chain of GST (P08515 whole entry, one chain of several): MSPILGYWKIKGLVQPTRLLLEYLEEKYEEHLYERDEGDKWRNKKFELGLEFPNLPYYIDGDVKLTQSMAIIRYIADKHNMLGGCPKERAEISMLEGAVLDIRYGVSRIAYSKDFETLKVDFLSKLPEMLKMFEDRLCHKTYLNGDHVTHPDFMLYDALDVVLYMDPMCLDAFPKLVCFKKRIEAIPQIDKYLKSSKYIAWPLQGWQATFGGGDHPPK
Source text: as §1
For B6, the binding result is reported as “no binding”.
Regarding B7, the binding result is on record as “no binding”.
As to B8, the binding result is reported as “no binding”.
The same measure, in the same setting: to B9 belongs “no binding”; to B10, “no binding”.

A further series addresses T1, TCF4 (TCF7L2) residues 265-496, GST …. The series is described as follows: EMSA; competed by excess unlabeled TBE. To be noted: tags: N-terminal GST (pGEX-5X-1), E. coli DH5alpha; label: radioactive.
Source text: as §1
As to B6, the binding result is recorded as “binds”.
The same measure, in the same setting: the entry for B7 is “binds”.
The same measure, in the same setting: the entry for B8 is “binds”; for B9 it is “binds”.
As to B10, the binding result is recorded as “binds”.

These data come from patent US20070065446, “Anti-bambi antibody and diagnostic or remedy for colon cancer and liver cancer” (SCIMEDIA LTD., published 2007).
